Data on 6 substances can be found in patent US7498306B2, “Peptides binding to the phosphatase 2A protein” (priority 2002, dated 2009).

For experiment [1], the target named is T1, structural sub-unit A of PP2A (Homo sapiens, UniProt P30153).
T1 construct: made in house; host or cells: bacteria
Briefly: peptide spot membrane binding, detected by western blot, with PP2A sub-unit A. The note with it: E4orf4 dodecapeptide membrane; 4 μg/ml purified protein overnight; antibody against protein A; FIG. 1. An excerpt:
Recombinant protein A (structural sub-unit of PP2A) expressed in bacteria.
(§1) We have mapped the binding sites between the E4orf4 proteins (coded by the canine adenovirus type 2) and the anti-apoptotic Bcl-2 protein with PP2A by using the <<peptides spot>> technique previously described (Frank et Overwing. (1996). Meth. Mol. Biol. 66, 149-169).
(§2) This approach is based on the use of membranes containing thereon dodecapeptides representing the whole protein of interest (E4orf4 and Bcl-2) with a two amino acid gap per peptide.
(§3) Each membrane is first saturated one hour at room temperature with TBS containing 5% skim milk powder and 3% BSA, then incubated overnight in the same buffer in the of 4 μg/ml of purified protein (sub-unit A of PP2A and PP2A1 holoenzyme).: Fifty six dodecapeptides covering the whole sequence of the E4orf4 protein and hundred-fifteen dodecapeptides covering the whole sequence of the Bcl-2 protein were synthesized and covalently bound to cellulosic membranes. […]
(A western blot detects proteins with antibodies after separation by electrophoresis.)

Experiment [2] deals with T2, trimeric ABC holoenzyme PP2A1 (Sus scrofa, UniProt P54612+Q29090).
T2 construct: The trimeric PP2A1 protein has been purified to homogeneity from porcine brain; from tissue; host or cells: porcine brain
T2 sequence (P67776 whole entry, one chain of several, further chain): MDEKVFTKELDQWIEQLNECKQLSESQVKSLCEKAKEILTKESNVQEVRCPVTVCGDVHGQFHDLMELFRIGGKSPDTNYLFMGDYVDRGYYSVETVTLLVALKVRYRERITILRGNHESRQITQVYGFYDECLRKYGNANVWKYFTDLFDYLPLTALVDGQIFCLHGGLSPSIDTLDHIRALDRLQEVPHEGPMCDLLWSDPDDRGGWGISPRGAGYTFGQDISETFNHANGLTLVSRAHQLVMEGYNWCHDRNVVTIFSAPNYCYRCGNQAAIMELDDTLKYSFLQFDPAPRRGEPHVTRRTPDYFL
T2 sequence (P54612 whole entry, one chain of several): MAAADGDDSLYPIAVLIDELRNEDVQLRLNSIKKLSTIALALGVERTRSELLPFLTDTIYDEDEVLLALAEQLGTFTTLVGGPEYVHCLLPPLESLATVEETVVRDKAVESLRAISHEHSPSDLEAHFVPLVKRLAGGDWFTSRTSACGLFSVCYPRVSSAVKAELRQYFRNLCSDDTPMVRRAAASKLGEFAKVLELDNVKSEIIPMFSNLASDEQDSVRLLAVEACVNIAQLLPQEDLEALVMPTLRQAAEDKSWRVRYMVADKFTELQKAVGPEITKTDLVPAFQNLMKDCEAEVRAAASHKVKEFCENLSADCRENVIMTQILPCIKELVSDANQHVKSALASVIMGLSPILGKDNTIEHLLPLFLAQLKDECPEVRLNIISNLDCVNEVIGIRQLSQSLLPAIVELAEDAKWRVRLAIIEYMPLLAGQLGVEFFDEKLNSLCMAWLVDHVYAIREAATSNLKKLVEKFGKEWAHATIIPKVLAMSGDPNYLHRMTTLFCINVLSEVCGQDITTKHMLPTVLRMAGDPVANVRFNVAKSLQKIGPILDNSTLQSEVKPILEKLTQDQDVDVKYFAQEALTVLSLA
Kind of experiment: peptide spot membrane binding, detected by western blot, with trimeric PP2A1 holoenzyme. Also noted: species or system porcine. The note with it: 4 μg/ml purified protein overnight, pool of antibodies against A, B and C; for binding of E4orf4 peptide sequence to PP2A1 protein: E4orf4 dodecapeptide membrane, FIG. 1; for binding of Bcl-2 peptide sequence to PP2A1 holoenzyme: Bcl-2 dodecapeptide membrane, FIG. 2.
Text: The trimeric PP2A1 protein has been purified to homogeneity from porcine brain.
as §1, §2
Each membrane is first saturated one hour at room temperature with TBS containing 5% skim milk powder and 3% BSA, then incubated overnight in the same buffer in the of 4 μg/ml of purified protein (sub-unit A of PP2A and PP2A1 holoenzyme).: Fifty six dodecapeptides covering the whole sequence of the E4orf4 protein and hundred-fifteen dodecapeptides covering the whole sequence of the Bcl-2 protein were synthesized and covalently bound to cellulosic membranes.
The specific interaction of each purified protein (respectively the structural sub-unit A, the regulatory sub-unit of B55(B) or the trimeric ABC holoenzyme (named PP2A1) with a peptide sequence is shown by western blot, following incubation of the membrane with an antibody raised against the structural protein A (A), the regulatory sub-unit B (B) and with a pool of antibodies recognising the A, B, and C proteins of PP2A (ABC) (FIGS. 1 and 2).

The target in experiment [3] is T3, regulatory sub-unit B55 (B) of PP2A (Homo sapiens, UniProt P63151).
T3 construct: made in house; host or cells: bacteria
T3 sequence (P63151 1-447): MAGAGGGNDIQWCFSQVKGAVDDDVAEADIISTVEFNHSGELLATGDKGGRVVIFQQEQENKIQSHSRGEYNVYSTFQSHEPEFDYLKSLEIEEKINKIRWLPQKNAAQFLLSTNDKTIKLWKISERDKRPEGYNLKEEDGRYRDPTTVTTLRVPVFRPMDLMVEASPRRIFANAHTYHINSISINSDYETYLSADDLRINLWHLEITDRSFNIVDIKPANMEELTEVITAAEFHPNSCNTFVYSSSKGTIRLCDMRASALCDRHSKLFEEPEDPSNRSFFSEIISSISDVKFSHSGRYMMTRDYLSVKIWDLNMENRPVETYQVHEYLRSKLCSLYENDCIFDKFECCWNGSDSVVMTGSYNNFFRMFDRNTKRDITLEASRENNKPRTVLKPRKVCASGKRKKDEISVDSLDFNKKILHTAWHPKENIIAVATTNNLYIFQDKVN
Briefly: peptide spot membrane binding, detected by western blot, with PP2A sub-unit B55. The conditions noted are these: antibody against sub-unit B.
Text: Recombinant protein B55 (regulatory sub-unit of PP2A) expressed in bacteria.
as §1, §2, §3

T1 sequence (P30153 whole entry): as the sequence (P54612 whole entry, one chain of several) above, with T324S counted along it

Turning to “AFRGRE VTVSLLEVFSFC (AFRGREVTVSLLEVFSFC) [site A3, E4orf4 residues 106-124, spot peptides 52 to 55]”, the “binding of E4orf4 peptide sequence to sub-unit A” value in experiment [1] is reported as “binding sites of E4orf4 with the sub-unit A”. Also, the “binding of E4orf4 peptide sequence to PP2A1 protein” value in experiment [2] is given as “binding sites of E4orf4 with the PP2A1 protein”.
Consider “ARTSPLQTPAAPGAAAGPAL [site 1-B, Bcl-2 residues 67-86, spot peptides 33 to 37]”, for which the “binding of Bcl-2 peptide sequence to sub-unit B” value in experiment [3] (Bcl-2 dodecapeptide membrane, FIG. 2) is on record as “binding site of Bcl-2 with the regulatory sub-unit B”.
On to “LFDFSWLSLKTLLSLALVGA [site 2-ABC, Bcl-2 residues 209-228, spot peptides 105-109]”, for which, in experiment [2], the “binding of Bcl-2 peptide sequence to PP2A1 holoenzyme” value is on record as “binding site of Bcl-2 with the PP2A1 holoenzyme”.
With “LGSMLE SPMEFLFDTI DDVTAS (LGSMLESPMEFLFDTIDDVTAS) [site A 1, E4orf4 residues 25-46, spot peptides 13 to 18]”, the “binding of E4orf4 peptide sequence to sub-unit A” value in experiment [1] is listed as “binding sites of E4orf4 with the sub-unit A”.
Turning to “PLQTPAAPGAAAGPAL [site 1-ABC, Bcl-2 residues 71-86, spot peptides 35 to 37]”, the “binding of Bcl-2 peptide sequence to PP2A1 holoenzyme” value in experiment [2] was “binding site of Bcl-2 with the PP2A1 holoenzyme”.
For “RELGSMLE SPMEFLFDTI DDVTAS (RELGSMLESPMEFLFDTIDDVTAS) [site B1, E4orf4 (canine adenovirus type 2) residues 23-46, spot peptides 12 to 18]”, the “binding of E4orf4 peptide sequence to sub-unit B” value in experiment [3] (E4orf4 dodecapeptide membrane, FIG. 1) is on record as “binding site of E4orf4 with the structural sub-unit B”. The “binding of E4orf4 peptide sequence to PP2A1 protein” value in experiment [2] was “binding sites of E4orf4 with the PP2A1 protein”.
